Values belong to the binder of their own block, whether it stands above or below them.
Assays:
[1] = molecular target: T1, recombinant human EpCAM protein (Sino biologics, Product Number 10694-H08H) (human, UniProt P16422 24-265); experiment: ELISA on coated recombinant human EpCAM, bound protein detected by its IL-2 part with an IL-2 ELISA kit
T1 construct: Bought protein coated on the ELISA plate at 1 ug/ml
T1 sequence (looked up): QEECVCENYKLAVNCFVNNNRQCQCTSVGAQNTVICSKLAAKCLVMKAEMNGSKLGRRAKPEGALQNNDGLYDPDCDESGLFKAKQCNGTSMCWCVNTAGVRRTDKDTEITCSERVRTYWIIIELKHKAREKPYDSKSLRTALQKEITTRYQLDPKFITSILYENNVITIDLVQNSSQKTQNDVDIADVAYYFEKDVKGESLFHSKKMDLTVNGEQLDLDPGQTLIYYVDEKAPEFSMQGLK
Method: 2. […] [0069] ii. IL-2 level detection: an IL-2 ELISA commercial kit (Manufacturer: Biolegend; Product Number 431801) is adopted; the brief steps include adding a primary antibody of anti-human IL-2, incubating for 1 hour and then adding a horseradish peroxidase labeled secondary antibody to obtain a […] signal by TMB color development. [0070] iii. Data processing: a standard curve is obtained by using an IL-2 standard product included in the kit, and the IL-2 signal level corresponding to the amount of protein bound to EpCAM is calculated, which represents the level of the protein bound to EpCAM.

[2] = molecular target: T2, EpCAM protein on Skov3 cells (UniProt P16422 24-314, limits assumed); experiment: staining of fixed Skov3 cells, detected with anti-human IL-2 antibody and DAB
T2 construct: whole, on cells; also called cellular level EpCAM; epithelial cell adhesion molecule
T2 sequence (looked up): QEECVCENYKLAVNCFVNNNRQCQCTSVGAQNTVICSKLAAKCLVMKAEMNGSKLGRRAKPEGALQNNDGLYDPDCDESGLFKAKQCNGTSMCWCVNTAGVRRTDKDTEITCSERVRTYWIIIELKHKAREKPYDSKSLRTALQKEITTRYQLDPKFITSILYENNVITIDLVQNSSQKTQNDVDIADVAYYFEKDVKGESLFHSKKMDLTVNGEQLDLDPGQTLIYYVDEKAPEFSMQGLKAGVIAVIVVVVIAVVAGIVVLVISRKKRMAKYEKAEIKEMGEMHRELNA
Method: Skov3 cells have adherent growth in a 24-pore plate for 24 hours and are fixed for 10 minutes using 4% PFA (paraformaldehyde); 5% BSA is added to block non-specific antigens; a primary antibody of anti-human IL-2 is added for incubation for 1 hour; after washing is performed 3 times with PBST, a secondary antibody is added; after incubation is performed for 1 hour, DAB (diaminobenzidine) is added for color development; and after washing is performed with PBS, photographing is performed under a bright-field microscope.

binding result [1]: binds | binding result [2]: binds
B1: fusion protein EPIL-2-2303407 of the anti-EpCAM single-chain antibody and IL-2 (other)
chain: APTSSSTKKTQLQLEHLLLDLQMILNGINNYKNPKLTRMLTFKFYMPKKATELKHLQCLEEELKPLEEALNLAPSKNFHLRPRDLISNINVIVLELKGSETTFMCEYADETATIVEFLNRWITFSQSTISTLTGGGGSGGGGSGGGGSGGGGSEVQLLEQSGAELARPGASVKLSCKASGYTFTNYGLSWVKQRPGQVLEWIGEVYPRIGNAYYNEKFKGKATLTADKSSSTASMELRSLTSEDSAVYFCARRGSYDTNYDWYFDVWGQGTTVTVSSGGGGSGGGGSGGGGSELVMTQTPLSLPVSLGDQASISCRSSQSLVHSNGNTYLHWYLQKPGQSPKLLIYKVSNRFSGVPDRFSGSGSGTDFTLKISRVEAEDLGVYFCSQSTHVPYTFGGGTKLEIKHHHHHH
notes: Single chain; Expressed in HEK293 cells and purified on Ni-Sepharose

binding result [1]: binds | binding result [2]: binds
B2: fusion protein EPIL-2-2303301 of the anti-EpCAM single-chain antibody and IL-2 (other)
chain: APTSSSTKKTQLQLEHLLLDLQMILNGINNYKNPKLTRMLTFKFYMPKKATELKHLQCLEEELKPLEEALNLAPSKNFHLRPRDLISNINVIVLELKGSETTFMCEYADETATIVEFLNRWITFSQSTISTLTGGGGSGGGGSGGGGSGGGGSEVQLLEQSGAELVKPGASVKISCKASGYAFTNYWLGWVKQRPGHGLEWIGDLFPGSGNTHYNERFRGKATLTADKSSSTAFMQLSSLTSEDSAVYFCARLRNWDEAMDYWGQGTTVTVSSGGGGSGGGGSGGGGSELVMTQSPSYLAASPGETITINCRASKSISKYLAWYQEKPGKTNKLLIYSGSTLQSGIPSRFSGSGSGTDFTLTISSLEPEDFAMYYCQQHNEYPYTFGGGTKLEIKHHHHHH
notes: as for B1

From patent US20210101953A1 (ZHEJIANG K2 ONCOLOGY, published 2021)
